Test results from patent publication US20250011454A1 (published 2025).
Numbering of substitutions follows the chain as printed.

B1: KL2B870 (antibody, human IgG1, kappa)
heavy: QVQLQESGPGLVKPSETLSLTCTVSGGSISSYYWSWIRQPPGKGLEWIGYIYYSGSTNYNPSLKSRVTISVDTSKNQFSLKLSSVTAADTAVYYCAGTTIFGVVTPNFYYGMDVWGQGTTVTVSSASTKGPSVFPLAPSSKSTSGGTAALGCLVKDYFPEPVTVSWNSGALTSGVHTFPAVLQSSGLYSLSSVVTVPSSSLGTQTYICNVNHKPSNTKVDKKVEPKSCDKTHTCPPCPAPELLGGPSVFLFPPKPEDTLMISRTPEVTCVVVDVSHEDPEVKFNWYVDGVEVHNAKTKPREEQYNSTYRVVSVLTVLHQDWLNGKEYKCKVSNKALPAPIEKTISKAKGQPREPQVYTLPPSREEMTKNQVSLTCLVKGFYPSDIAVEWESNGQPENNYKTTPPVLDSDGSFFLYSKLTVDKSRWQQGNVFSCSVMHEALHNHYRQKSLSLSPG
light: DIQMTQSPSFLSASVGDRVTITCRASQGISSYLAWYQQKPGKAPKFLIYAASTLQSGVPSRFSGSGSGTEFTLTISSLQPEDFATYYCQQLNSYPLTFGGGTKVEIKRTVAAPSVFIFPPSDEQLKSGTASVVCLLNNFYPREAKVQWKVDNALQSGNSQESVTEQDSKDSTYSLSSTLTLSKADYEKHKVYACEVTHQGLSSPVTKSFNRGEC
B2: KL2B872.CLF (antibody, human IgG1, kappa)
heavy: not shown
light: B1 light
B3: KL2B870.CLF (antibody, human IgG1, kappa)
heavy: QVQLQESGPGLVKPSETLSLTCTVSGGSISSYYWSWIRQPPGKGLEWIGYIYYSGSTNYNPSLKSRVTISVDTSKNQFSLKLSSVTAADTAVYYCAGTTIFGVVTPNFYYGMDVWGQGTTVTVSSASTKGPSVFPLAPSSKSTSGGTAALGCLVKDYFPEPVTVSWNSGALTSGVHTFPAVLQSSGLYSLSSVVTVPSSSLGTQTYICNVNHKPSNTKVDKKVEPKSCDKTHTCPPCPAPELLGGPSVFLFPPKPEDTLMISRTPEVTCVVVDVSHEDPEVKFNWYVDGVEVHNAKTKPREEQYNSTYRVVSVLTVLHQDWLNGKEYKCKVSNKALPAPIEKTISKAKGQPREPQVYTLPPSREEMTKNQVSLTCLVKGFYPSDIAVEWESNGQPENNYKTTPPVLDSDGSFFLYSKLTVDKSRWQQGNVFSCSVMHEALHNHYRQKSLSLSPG
light: B1 light
B4: PSMB952 (antibody, V domains shown)
VH: EVQLVESGGGLVQPGGSLRLSCAASGFTFSSYAMSWVRQAPGKGLEWVSAISGGIGSTYYADSVKGRFTISRDNSKNTLWLQMNSLRAEDTAVYYCAKDGVGATPYYFDYWGQGTLVTVSS
VL: QSVLTQPPSVSAAPGQKVTISCSGSSSNIGINYVSWYQQLPGTAPKLLIYDNNKRPSGIPDRFSGSKSGTSATLGITGLQTGDEADYYCGTWDSSLSAVVFGGGTKLTVL
B5: PSMB956 (antibody, V domains shown)
VH: B4 VH with I55S, W80Y, T91S
VL: B4 VL

Tests used:
Assay in all cases: cell-based or functional assay
[1] = target: T1, KLK2 (UniProt P20151 25-261, limits assumed)
T1 sequence (P20151 25-261 limits assumed): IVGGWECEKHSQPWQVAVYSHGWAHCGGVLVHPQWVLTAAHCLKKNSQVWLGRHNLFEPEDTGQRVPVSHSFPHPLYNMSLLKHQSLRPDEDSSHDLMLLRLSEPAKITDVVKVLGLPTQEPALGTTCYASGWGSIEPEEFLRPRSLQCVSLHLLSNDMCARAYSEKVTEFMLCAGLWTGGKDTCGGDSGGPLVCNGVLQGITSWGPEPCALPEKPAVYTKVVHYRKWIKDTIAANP

[2] = target: T1, KLK2; remark: listed apart in the source
[3] = target: PSMA (UniProt Q04609 44-750, limits assumed)
Chain of PSMA (Q04609 44-750 limits assumed): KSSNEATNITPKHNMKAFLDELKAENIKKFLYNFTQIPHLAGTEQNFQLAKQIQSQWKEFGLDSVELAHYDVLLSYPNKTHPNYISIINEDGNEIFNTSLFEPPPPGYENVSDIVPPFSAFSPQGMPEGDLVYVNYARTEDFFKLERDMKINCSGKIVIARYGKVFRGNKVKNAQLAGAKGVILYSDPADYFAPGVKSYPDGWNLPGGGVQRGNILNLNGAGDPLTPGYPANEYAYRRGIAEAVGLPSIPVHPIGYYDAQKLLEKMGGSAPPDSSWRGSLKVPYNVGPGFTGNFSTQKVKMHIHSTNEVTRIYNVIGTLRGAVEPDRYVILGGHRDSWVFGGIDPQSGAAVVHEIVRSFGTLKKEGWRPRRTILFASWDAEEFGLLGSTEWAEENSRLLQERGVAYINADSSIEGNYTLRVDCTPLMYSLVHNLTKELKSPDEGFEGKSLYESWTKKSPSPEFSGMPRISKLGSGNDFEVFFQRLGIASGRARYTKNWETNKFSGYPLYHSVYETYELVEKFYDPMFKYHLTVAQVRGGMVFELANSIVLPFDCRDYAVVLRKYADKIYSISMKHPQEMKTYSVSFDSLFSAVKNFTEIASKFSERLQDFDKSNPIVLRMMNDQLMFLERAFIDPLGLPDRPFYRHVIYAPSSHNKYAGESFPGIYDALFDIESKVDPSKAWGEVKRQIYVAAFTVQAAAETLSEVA

Binder | EC50 (M), ADCC killing of VCaP cells by PBMC at 48 hour [1] [M] | ADCC activity, cell killing of VCaP cells by PBMC [2] [%] | In vitro ADCC killing EC50 (M), C42B cells, NK cells, 24 hour [3] [M] | In vitro ADCC killing EC50 (M), C42B cells, PBMC, 6 hour [3] [M] | In vitro ADCC killing EC50 (M), LNCaP cells, NK cells, 24 hour [3] [M] | In vitro ADCC killing EC50 (M), LNCaP cells, PBMC, 6 hour [3] [M]
B1 | 1e-09 | ~73 |  |  |  | 
B2 | 4.12e-10 | ~85 |  |  |  | 
B3 | 3.54e-10 | ~89 |  |  |  | 
B4 |  |  | 2.45e-11 | 3.51e-10 | 4.59e-11 | 2.01e-10
B5 |  |  | 9.96e-12 | 4.23e-10 | 3.58e-11 | 1.52e-10
